For data set [1], the system named is CC(=O)N[C@H]1[C@H]([C@H](F)[C@H](O)CO)O[C@@](O[C@H]2[C@@H](O)[C@@H](CO)O[C@@H](Oc3ccc4c(C)cc(=O)oc4c3)[C@@H]2O)(C(=O)O)C[C@@H]1O. The experiment in a line: purified protein.
The subject of data set [2] is CC(=O)N[C@H]1[C@H]([C@H](O)[C@H](O)CO)O[C@](OP(=O)(O)OC[C@H]2O[C@@H](n3ccc(N)nc3=O)[C@H](O)[C@@H]2O)(C(=O)O)C[C@@H]1O. The experiment in a line: purified protein.
The target of data set [3] is porcine N-acyl-D-glucosamine 2-epimerase (AGE) (Sus scrofa, UniProt P17560). It counts as biochemical. To be noted: 35 °C, 48 h.
Sequence of porcine N-acyl-D-glucosamine 2-epimerase (AGE) (P17560 whole entry): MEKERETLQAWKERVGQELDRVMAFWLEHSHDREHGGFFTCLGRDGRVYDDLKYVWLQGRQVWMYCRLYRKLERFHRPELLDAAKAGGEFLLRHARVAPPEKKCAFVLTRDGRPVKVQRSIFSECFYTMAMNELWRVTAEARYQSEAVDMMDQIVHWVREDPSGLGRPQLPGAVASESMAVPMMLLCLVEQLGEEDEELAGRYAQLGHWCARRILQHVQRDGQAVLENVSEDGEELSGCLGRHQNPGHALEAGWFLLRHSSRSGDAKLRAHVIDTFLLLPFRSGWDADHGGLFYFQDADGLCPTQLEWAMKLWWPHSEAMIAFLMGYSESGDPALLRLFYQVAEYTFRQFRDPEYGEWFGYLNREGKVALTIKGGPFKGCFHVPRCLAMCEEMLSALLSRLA
The target in the next data set is PmST1 (Pasteurella multocida, UniProt Q15KI8). It counts as biochemical.

Usually kcat/Km stands for the turnover number divided by the Michaelis constant. Take (Micromonospora viridifaciens): in data set [1], the Km is reported as 1.2 (±0.15) mM and the kcat/Km was 2250 ± 1000 M⁻¹ s⁻¹. Consider (Photobacterium sp. JT-ISH-224), for which, in data set [2], the Km is reported as 70 (±1) μM and the kcat/Km turned out to be 656000 M⁻¹ s⁻¹. Consider `CC(=O)N[C@H]1C(O)O[C@H](CO)[C@H](F)[C@@H]1O` (stereo partly drawn) [compound 2, 4-deoxy-4-fluoro-GalNAc], for which, in data set [3], the “one-pot epimerase/aldolase conversion, 19F NMR” value was “the epimerase was converting the GalNAc starting material”. Consider `CC(=O)N[C@H]1[C@H]([C@H](O)[C@H](O)CO)O[C@](OP(=O)(O)OC[C@H]2O[C@@H](n3ccc(N)nc3=O)[C@H](O)[C@@H]2O)(C(=O)O)C[C@@H]1O` [compound 9, CMP-7OHSA], for which, on PmST1, the Km turned out to be 89 µM.

The values above are taken from article PMC7908025 (ACS Central Science, 2021).
